Assay [1] deals with ALX4 homeodomain (amino acids 209-274) (human) (UniProt Q9H161). As to the kind of experiment: native gel or EMSA; quantitative EMSA, purified HD protein with 34 nM fluorescent P4 probe (a single G added to the spacer of the P3 probe); same buffer; Tau = 4[P2D][D]/[PD]^2 (monomer on DNA to dimer on DNA).
Assay [2] deals with OTP homeodomain (amino acids 99-164) (human) (UniProt Q5XKR4). Described as above.
The target of assay [3] is PHOX2B Q46K homeodomain (human). As to the kind of experiment: native gel or EMSA; quantitative EMSA, purified HD protein with 34 nM fluorescent Q50 P3 probe (TAAT-TAG-ATTA); 20 min at room temperature, 10 mM Tris pH 7.5, 50 mM NaCl, 1 mM MgCl2, 4% glycerol, 0.5 mM DTT, 0.5 mM EDTA, poly(dI-dC), BSA; Tau = 4[P2D][D]/[PD]^2, the factor by which the first HD on the DNA helps the second to bind (monomer on DNA to dimer on DNA). (In EMSA bound probe runs differently from free probe, usually more slowly.)

Assay [4] concerns the target PHOX2B Q46R homeodomain (human). The assay is described as above.
The target in assay [5] is PITX3 homeodomain (human). As to the kind of experiment: native gel or EMSA; quantitative EMSA, purified HD protein with 34 nM fluorescent K50 P3 probe (TAAT-CCG-ATTA); 20 min at room temperature, 10 mM Tris pH 7.5, 50 mM NaCl, 1 mM MgCl2, 4% glycerol, 0.5 mM DTT, 0.5 mM EDTA, poly(dI-dC), BSA; Tau = 4[P2D][D]/[PD]^2 (monomer on DNA to dimer on DNA).

Regarding “ALX4 homeodomain (amino acids 209-274) (from UniProt Q9H161 209-274) (domain or fragment)”, the Tau (cooperativity factor) with P4 DNA in assay [1] was found to be 0.792.

With “OTP homeodomain (amino acids 99-164) (from UniProt Q5XKR4 99-164) (domain or fragment)”, the Tau (cooperativity factor) with P4 DNA in assay [2] was determined as 0.29.

As for “PHOX2B Q46K homeodomain (domain or fragment)”, the Tau (cooperativity factor) with P3 DNA in assay [3] stood at 1.4.

As to “PHOX2B Q46R homeodomain (domain or fragment)”, in assay [4], the Tau (cooperativity factor) with P3 DNA stood at 1.27.

PITX3 homeodomain (domain or fragment) registered a Tau (cooperativity factor) with P3 DNA in assay [5] of 0.157.
